Each block holds one binder with its values, some of them ahead of it.
Columns and labels:
[1] = target: Venus-tagged GBF1 HDS1 domain (human); experiment: co-IP; Cos7 cells co-transfected with HA-tagged ATGL constructs and Venus-tagged constructs; IP with anti-GFP, blot with anti-HA; lysis in 50 mM Tris-HCl pH 7.5, 100 mM NaCl, 1 mM EDTA, 0.5% NP40; 4°C
[2] = target: Venus-tagged N-GBF1 D544A (human); experiment: as above
[3] = target: Venus-tagged full-length GBF1 D544A (human) (UniProt Q92538); experiment: as above
[4] = target: Venus-ΔDCB-GBF1 (human); experiment: as above
[5] = target: T1, GST-tagged ATGL(300–504) (human, UniProt Q96AD5 300-504); experiment: pull-down; quantitative: 0.1 nmole His-Sec7-GBF1(710–894) immobilised on Ni Sepharose, 1–20 µM GST-tagged ATGL(300–504) added; anti-GST immunoblot, bound versus free, Scatchard analysis; apparent Kd; details: both partners purified
T1 construct: source: E. coli BL21(DE3), purified (glutathione Sepharose 4B, Sephacryl S-200)
T1 sequence (looked up): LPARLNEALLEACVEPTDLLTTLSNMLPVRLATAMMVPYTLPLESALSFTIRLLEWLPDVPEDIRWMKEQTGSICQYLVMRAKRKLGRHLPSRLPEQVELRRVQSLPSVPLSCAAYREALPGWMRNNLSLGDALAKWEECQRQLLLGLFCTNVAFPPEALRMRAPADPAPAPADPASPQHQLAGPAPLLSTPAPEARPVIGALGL

Chain of Venus-tagged GBF1 HDS1 domain (human) (Q92538 688-888): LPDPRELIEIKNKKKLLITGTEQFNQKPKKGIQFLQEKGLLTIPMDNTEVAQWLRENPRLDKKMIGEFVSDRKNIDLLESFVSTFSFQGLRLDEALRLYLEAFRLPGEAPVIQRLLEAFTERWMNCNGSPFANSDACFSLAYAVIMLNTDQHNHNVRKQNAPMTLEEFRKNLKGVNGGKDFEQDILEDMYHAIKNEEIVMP
Chain of Venus-tagged full-length GBF1 D544A (human) (Q92538 other isoform, or with tags, fused parts or gaps, stated change not applied): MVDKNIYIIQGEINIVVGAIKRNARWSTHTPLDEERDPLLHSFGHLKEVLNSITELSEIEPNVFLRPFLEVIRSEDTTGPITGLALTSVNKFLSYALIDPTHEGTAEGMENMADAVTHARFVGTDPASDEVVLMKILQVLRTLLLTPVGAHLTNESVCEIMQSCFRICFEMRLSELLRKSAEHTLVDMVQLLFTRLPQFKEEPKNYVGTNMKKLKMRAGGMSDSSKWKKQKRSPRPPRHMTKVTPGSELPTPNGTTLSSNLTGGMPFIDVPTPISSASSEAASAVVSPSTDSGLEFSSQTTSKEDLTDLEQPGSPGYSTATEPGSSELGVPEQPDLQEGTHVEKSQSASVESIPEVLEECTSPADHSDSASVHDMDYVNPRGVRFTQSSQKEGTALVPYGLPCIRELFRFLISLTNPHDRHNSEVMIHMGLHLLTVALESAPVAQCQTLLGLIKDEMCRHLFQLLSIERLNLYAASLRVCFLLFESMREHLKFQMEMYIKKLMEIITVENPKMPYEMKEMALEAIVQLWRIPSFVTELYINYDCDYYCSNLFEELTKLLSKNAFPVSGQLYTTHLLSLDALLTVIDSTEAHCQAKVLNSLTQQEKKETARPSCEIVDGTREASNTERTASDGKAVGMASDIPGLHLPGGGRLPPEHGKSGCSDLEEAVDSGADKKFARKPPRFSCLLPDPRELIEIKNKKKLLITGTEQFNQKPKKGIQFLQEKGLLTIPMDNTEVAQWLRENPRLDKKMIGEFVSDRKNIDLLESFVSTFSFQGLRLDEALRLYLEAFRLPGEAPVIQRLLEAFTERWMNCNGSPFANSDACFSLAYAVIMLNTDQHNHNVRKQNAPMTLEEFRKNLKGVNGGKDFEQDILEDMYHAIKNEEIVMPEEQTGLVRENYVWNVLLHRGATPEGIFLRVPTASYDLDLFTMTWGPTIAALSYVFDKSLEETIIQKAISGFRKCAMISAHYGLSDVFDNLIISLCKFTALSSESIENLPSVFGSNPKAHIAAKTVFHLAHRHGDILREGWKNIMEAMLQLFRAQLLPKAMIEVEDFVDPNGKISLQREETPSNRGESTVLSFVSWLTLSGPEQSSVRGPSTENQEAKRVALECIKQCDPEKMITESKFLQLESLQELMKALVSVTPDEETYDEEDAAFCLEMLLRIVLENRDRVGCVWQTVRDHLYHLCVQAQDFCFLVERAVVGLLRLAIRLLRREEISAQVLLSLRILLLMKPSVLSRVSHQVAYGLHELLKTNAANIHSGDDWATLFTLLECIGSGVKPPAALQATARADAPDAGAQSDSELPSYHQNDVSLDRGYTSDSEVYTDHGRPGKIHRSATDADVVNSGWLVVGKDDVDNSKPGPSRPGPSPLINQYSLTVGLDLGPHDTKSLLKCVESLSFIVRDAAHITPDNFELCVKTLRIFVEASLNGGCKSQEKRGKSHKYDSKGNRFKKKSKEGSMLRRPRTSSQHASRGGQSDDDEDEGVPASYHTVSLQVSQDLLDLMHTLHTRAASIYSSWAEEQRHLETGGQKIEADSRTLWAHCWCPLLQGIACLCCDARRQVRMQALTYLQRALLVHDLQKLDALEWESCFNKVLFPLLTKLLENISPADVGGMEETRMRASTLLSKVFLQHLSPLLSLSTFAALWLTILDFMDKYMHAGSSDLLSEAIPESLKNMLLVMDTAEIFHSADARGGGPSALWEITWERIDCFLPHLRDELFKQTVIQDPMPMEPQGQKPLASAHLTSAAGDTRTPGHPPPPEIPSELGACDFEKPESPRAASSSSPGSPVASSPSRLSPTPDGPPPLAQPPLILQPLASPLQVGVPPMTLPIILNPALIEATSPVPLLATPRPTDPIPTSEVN
Chain of Venus-ΔDCB-GBF1 (human) (Q92538 whole entry, stated change not applied): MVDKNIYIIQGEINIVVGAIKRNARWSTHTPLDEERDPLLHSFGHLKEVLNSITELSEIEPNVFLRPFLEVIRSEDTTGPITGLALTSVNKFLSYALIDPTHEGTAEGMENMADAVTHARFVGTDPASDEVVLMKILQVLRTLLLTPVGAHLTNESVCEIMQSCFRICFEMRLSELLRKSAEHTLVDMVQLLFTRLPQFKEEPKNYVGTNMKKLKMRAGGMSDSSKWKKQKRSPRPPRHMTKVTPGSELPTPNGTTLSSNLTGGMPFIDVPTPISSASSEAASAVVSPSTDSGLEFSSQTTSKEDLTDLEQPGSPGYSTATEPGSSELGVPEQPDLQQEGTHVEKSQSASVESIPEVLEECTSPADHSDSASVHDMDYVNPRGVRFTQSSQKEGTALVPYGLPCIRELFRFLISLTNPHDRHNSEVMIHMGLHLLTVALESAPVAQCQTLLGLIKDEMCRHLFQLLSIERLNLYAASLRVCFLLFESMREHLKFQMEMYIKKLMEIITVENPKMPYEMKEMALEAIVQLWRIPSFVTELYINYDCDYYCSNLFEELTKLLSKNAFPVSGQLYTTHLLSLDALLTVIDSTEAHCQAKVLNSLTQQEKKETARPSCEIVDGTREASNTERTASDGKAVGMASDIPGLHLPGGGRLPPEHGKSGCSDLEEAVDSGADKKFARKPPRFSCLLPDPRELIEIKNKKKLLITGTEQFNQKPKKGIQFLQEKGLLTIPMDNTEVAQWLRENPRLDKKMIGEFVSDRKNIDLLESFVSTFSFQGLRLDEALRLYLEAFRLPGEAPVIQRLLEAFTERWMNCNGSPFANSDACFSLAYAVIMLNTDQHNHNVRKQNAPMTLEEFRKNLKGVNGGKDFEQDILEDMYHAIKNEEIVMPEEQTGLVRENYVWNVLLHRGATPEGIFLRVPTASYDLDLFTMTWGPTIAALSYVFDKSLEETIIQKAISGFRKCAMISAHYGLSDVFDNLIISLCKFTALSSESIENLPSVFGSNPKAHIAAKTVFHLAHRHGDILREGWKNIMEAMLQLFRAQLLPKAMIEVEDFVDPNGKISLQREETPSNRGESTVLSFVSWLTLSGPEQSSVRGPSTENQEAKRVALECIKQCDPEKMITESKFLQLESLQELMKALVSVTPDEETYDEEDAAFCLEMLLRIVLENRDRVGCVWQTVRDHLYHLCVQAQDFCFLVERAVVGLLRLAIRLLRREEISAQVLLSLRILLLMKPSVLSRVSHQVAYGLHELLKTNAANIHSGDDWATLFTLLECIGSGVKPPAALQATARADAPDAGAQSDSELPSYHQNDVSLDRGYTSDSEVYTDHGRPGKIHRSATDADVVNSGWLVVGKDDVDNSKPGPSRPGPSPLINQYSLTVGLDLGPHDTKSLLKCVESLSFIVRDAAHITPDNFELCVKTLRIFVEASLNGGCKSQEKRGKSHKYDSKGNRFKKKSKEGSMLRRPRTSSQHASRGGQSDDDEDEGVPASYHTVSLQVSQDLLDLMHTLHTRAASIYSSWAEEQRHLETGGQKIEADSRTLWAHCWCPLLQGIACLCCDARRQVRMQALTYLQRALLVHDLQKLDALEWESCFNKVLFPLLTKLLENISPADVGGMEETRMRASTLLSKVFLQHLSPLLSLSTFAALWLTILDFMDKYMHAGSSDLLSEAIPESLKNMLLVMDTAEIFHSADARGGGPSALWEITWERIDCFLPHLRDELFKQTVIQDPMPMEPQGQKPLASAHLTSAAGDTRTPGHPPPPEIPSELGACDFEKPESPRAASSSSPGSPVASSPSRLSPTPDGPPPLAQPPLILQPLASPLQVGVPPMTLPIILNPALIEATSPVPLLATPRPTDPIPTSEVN

percent of ATGL recovered in the co-IP [1]: 10%
fold level of interaction over the wild type N-terminal region [2]: 5 to 10 fold
fold level of interaction over wild type GBF1 [3]: 10 fold
fold level of interaction over wild type GBF1 [4]: 10 fold
B1: HA-tagged H. sapiens ATGL (full-length) (natural protein)
chain: MFPREKTWNISFAGCGFLGVYYVGVASCLREHAPFLVANATHIYGASAGALTATALVTGVCLGEAGAKFIEVSKEARKRFLGPLHPSFNLVKIIRSFLLKVLPADSHEHASGRLGISLTRVSDGENVIISHFNSKDELIQANVCSGFIPVYCGLIPPSLQGVRYVDGGISDNLPLYELKNTITVSPFSGESDICPQDSSTNIHELRVTNTSIQFNLRNLYRLSKALFPPEPLVLREMCKQGYRDGLRFLQRNGLLNRPNPLLALPPARPHGPEDKDQAVESAQAEDYSQLPGEDHILEHLPARLNEALLEACVEPTDLLTTLSNMLPVRLATAMMVPYTLPLESALSFTIRLLEWLPDVPEDIRWMKEQTGSICQYLVMRAKRKLGRHLPSRLPEQVELRRVQSLPSVPLSCAAYREALPGWMRNNLSLGDALAKWEECQRQLLLGLFCTNVAFPPEALRMRAPADPAPAPADPASPQHQLAGPAPLLSTPAPEARPVIGALGL

Kd [5]: 2500 ± 300 nM
B2: His-Sec7-GBF1(710–894) (domain or fragment, human, UniProt Q92538-1 710-894, looked up)
chain: FNQKPKKGIQFLQEKGLLTIPMDNTEVAQWLRENPRLDKKMIGEFVSDRKNIDLLESFVSTFSFQGLRLDEALRLYLEAFRLPGEAPVIQRLLEAFTERWMNCNGSPFANSDACFSLAYAVIMLNTDQHNHNVRKQNAPMTLEEFRKNLKGVNGGKDFEQDILEDMYHAIKNEEIVMPEEQTGLV
notes: Sec7 domain, residues 710-894; the end of the His tag is read from the printed name; vector pBAD/His C; also called His-tagged Sec7 domain of GBF1; His-Sec7-GBF1 fragment; not shown: His tag, N-terminal, kept

— paper PMC3138737, “Interaction between the Triglyceride Lipase ATGL and the Arf1 Activator GBF1” (PLoS ONE, 2011)
